Measured values: patent US10941182 (Amgen, dated 2021)
Each block holds one binder with its values, some of them ahead of it. Starred links: 1 amine or outer side, 2 acyl side, 3 side chain; linkers in the order of their positions; H or OH if unused. Non-standard residues stand in square brackets, D forms with d. *: point of attachment. dBip = N[C@H](Cc1ccc(-c2ccccc2)cc1)C(=O)O; Oic = O=C(O)[C@@H]1C[C@@H]2CCCC[C@@H]2N1; Phe(4-Cl) = N[C@@H](Cc1ccc(Cl)cc1)C(=O)O; Phe(4-I) = N[C@@H](Cc1ccc(I)cc1)C(=O)O; γGlu = O=C(O)[C@H](CCC(=O)[*:2])N[*:1]; NMeR = CN[C@@H](CCCNC(=N)N)C(=O)O; Tridecanoyl = CCCCCCCCCCCCC(=O)*; hArg = N=C(N)NCCCC[C@H](N)C(=O)O; Cha = N[C@@H](CC1CCCCC1)C(=O)O; NMeL = CN[C@@H](CC(C)C)C(=O)O; Nle = CCCC[C@H](N)C(=O)O; AEEA = NCCOCCOCC(=O)O

Legend:
[1] = target: T1, human APJ receptor (human, UniProt P35414 1-380); experiment: cell-based or functional assay
T1 sequence (looked up): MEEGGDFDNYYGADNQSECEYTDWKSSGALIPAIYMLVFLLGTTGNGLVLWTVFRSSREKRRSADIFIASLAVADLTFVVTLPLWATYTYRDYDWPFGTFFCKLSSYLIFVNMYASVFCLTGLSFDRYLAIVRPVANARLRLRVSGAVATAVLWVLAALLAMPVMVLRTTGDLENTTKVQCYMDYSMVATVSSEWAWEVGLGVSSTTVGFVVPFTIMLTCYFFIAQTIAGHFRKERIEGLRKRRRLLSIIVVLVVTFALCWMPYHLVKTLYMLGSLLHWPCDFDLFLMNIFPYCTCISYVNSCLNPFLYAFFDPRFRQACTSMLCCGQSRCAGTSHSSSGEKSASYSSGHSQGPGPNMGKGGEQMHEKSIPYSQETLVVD

[2] = target: T2, rat APJ receptor (rat, UniProt Q9JHG3 1-377); experiment: cell-based or functional assay
T2 sequence (looked up): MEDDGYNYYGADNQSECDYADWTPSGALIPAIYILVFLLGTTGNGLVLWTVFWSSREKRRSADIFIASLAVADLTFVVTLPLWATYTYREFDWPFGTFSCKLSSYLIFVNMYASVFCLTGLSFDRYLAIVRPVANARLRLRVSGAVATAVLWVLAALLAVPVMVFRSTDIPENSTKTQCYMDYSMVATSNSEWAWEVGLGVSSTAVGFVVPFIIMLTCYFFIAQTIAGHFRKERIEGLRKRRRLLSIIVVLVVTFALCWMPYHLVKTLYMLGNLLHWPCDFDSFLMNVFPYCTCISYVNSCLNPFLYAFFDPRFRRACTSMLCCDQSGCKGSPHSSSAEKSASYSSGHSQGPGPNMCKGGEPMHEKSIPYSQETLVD

- EC50 Human APJ Receptor [1]: 37.5 nM
- EC50 Rat APJ Receptor [2]: 36.1 nM
B2: SEQ ID NO: 329 (peptide)
peptide: Tridecanoyl-[γGlu][AEEA][AEEA][hArg][dR]Q[hArg]P[Nle][NMeL]AAKG[Oic][Phe(4-I)]P[dBip]-OH
SMILES: CCCCCCCCCCCCC(=O)N[C@@H](CCC(=O)NCCOCCOCC(=O)NCCOCCOCC(=O)N[C@@H](CCCCNC(=N)N)C(=O)N[C@H](CCCNC(=N)N)C(=O)N[C@@H](CCC(N)=O)C(=O)N[C@@H](CCCCNC(=N)N)C(=O)N1CCC[C@H]1C(=O)N[C@@H](CCCC)C(=O)N(C)[C@@H](CC(C)C)C(=O)N[C@@H](C)C(=O)N[C@@H](C)C(=O)N[C@@H](CCCCN)C(=O)NCC(=O)N1[C@H](C(=O)N[C@@H](Cc2ccc(I)cc2)C(=O)N2CCC[C@H]2C(=O)N[C@H](Cc2ccc(-c3ccccc3)cc2)C(=O)O)C[C@@H]2CCCC[C@@H]21)C(=O)O

- EC50 Human APJ Receptor [1]: 2.51 nM
- EC50 Rat APJ Receptor [2]: 5.29 nM
B3: SEQ ID NO: 323 (peptide)
peptide: Tridecanoyl-[γGlu][AEEA][AEEA][hArg][dR]Q[hArg]P[Nle][NMeL]SAKG[Oic][Phe(4-I)]P[dBip]-OH
SMILES: CCCCCCCCCCCCC(=O)N[C@@H](CCC(=O)NCCOCCOCC(=O)NCCOCCOCC(=O)N[C@@H](CCCCNC(=N)N)C(=O)N[C@H](CCCNC(=N)N)C(=O)N[C@@H](CCC(N)=O)C(=O)N[C@@H](CCCCNC(=N)N)C(=O)N1CCC[C@H]1C(=O)N[C@@H](CCCC)C(=O)N(C)[C@@H](CC(C)C)C(=O)N[C@@H](CO)C(=O)N[C@@H](C)C(=O)N[C@@H](CCCCN)C(=O)NCC(=O)N1[C@H](C(=O)N[C@@H](Cc2ccc(I)cc2)C(=O)N2CCC[C@H]2C(=O)N[C@H](Cc2ccc(-c3ccccc3)cc2)C(=O)O)C[C@@H]2CCCC[C@@H]21)C(=O)O

- EC50 Human APJ Receptor [1]: 3.96 nM
- EC50 Rat APJ Receptor [2]: 4.76 nM
B5: SEQ ID NO: 325 (peptide)
peptide: Tridecanoyl-[γGlu][AEEA][AEEA][hArg][dR]Q[hArg]PK[NMeL]SA[Nle]G[Oic][Phe(4-I)]P[dBip]-OH
SMILES: CCCCCCCCCCCCC(=O)N[C@@H](CCC(=O)NCCOCCOCC(=O)NCCOCCOCC(=O)N[C@@H](CCCCNC(=N)N)C(=O)N[C@H](CCCNC(=N)N)C(=O)N[C@@H](CCC(N)=O)C(=O)N[C@@H](CCCCNC(=N)N)C(=O)N1CCC[C@H]1C(=O)N[C@@H](CCCCN)C(=O)N(C)[C@@H](CC(C)C)C(=O)N[C@@H](CO)C(=O)N[C@@H](C)C(=O)N[C@@H](CCCC)C(=O)NCC(=O)N1[C@H](C(=O)N[C@@H](Cc2ccc(I)cc2)C(=O)N2CCC[C@H]2C(=O)N[C@H](Cc2ccc(-c3ccccc3)cc2)C(=O)O)C[C@@H]2CCCC[C@@H]21)C(=O)O

- EC50 Human APJ Receptor [1]: 0.0277 nM
- EC50 Rat APJ Receptor [2]: 0.102 nM
B6: SEQ ID NO: 490 (peptide)
peptide: Tridecanoyl-[γGlu][AEEA][AEEA][hArg]Q[hArg]P[hArg][Cha]SHKG[Oic][Nle]P[Phe(4-Cl)]-OH
SMILES: CCCCCCCCCCCCC(=O)N[C@@H](CCC(=O)NCCOCCOCC(=O)NCCOCCOCC(=O)N[C@@H](CCCCNC(=N)N)C(=O)N[C@@H](CCC(N)=O)C(=O)N[C@@H](CCCCNC(=N)N)C(=O)N1CCC[C@H]1C(=O)N[C@@H](CCCCNC(=N)N)C(=O)N[C@@H](CC1CCCCC1)C(=O)N[C@@H](CO)C(=O)N[C@@H](Cc1c[nH]cn1)C(=O)N[C@@H](CCCCN)C(=O)NCC(=O)N1[C@H](C(=O)N[C@@H](CCCC)C(=O)N2CCC[C@H]2C(=O)N[C@@H](Cc2ccc(Cl)cc2)C(=O)O)C[C@@H]2CCCC[C@@H]21)C(=O)O

- EC50 Human APJ Receptor [1]: 24.7 nM
- EC50 Rat APJ Receptor [2]: 18.1 nM
B7: SEQ ID NO: 331 (peptide)
peptide: Tridecanoyl-[γGlu][AEEA][AEEA][hArg][dR]Q[hArg]PK[NMeL]AA[Nle]G[Oic][Phe(4-I)]P[dBip]-OH
SMILES: CCCCCCCCCCCCC(=O)N[C@@H](CCC(=O)NCCOCCOCC(=O)NCCOCCOCC(=O)N[C@@H](CCCCNC(=N)N)C(=O)N[C@H](CCCNC(=N)N)C(=O)N[C@@H](CCC(N)=O)C(=O)N[C@@H](CCCCNC(=N)N)C(=O)N1CCC[C@H]1C(=O)N[C@@H](CCCCN)C(=O)N(C)[C@@H](CC(C)C)C(=O)N[C@@H](C)C(=O)N[C@@H](C)C(=O)N[C@@H](CCCC)C(=O)NCC(=O)N1[C@H](C(=O)N[C@@H](Cc2ccc(I)cc2)C(=O)N2CCC[C@H]2C(=O)N[C@H](Cc2ccc(-c3ccccc3)cc2)C(=O)O)C[C@@H]2CCCC[C@@H]21)C(=O)O

The next lines start with the binder.

B1: SEQ ID NO: 313 (peptide)
peptide: Tridecanoyl-[γGlu][AEEA][AEEA][hArg][dR]Q[hArg]PK[NMeL]SH[Nle]G[Oic][Phe(4-I)]P[dBip]-OH
SMILES: CCCCCCCCCCCCC(=O)N[C@@H](CCC(=O)NCCOCCOCC(=O)NCCOCCOCC(=O)N[C@@H](CCCCNC(=N)N)C(=O)N[C@H](CCCNC(=N)N)C(=O)N[C@@H](CCC(N)=O)C(=O)N[C@@H](CCCCNC(=N)N)C(=O)N1CCC[C@H]1C(=O)N[C@@H](CCCCN)C(=O)N(C)[C@@H](CC(C)C)C(=O)N[C@@H](CO)C(=O)N[C@@H](Cc1c[nH]cn1)C(=O)N[C@@H](CCCC)C(=O)NCC(=O)N1[C@H](C(=O)N[C@@H](Cc2ccc(I)cc2)C(=O)N2CCC[C@H]2C(=O)N[C@H](Cc2ccc(-c3ccccc3)cc2)C(=O)O)C[C@@H]2CCCC[C@@H]21)C(=O)O
- EC50 Human APJ Receptor [1]: 14.8 nM
- EC50 Rat APJ Receptor [2]: 10.4 nM

B4: SEQ ID NO: 317 (peptide)
peptide: Tridecanoyl-[γGlu][AEEA][AEEA][hArg][dR]Q[hArg]P[Nle][NMeL]AHKG[Oic][Phe(4-I)]P[dBip]-OH
SMILES: CCCCCCCCCCCCC(=O)N[C@@H](CCC(=O)NCCOCCOCC(=O)NCCOCCOCC(=O)N[C@@H](CCCCNC(=N)N)C(=O)N[C@H](CCCNC(=N)N)C(=O)N[C@@H](CCC(N)=O)C(=O)N[C@@H](CCCCNC(=N)N)C(=O)N1CCC[C@H]1C(=O)N[C@@H](CCCC)C(=O)N(C)[C@@H](CC(C)C)C(=O)N[C@@H](C)C(=O)N[C@@H](Cc1c[nH]cn1)C(=O)N[C@@H](CCCCN)C(=O)NCC(=O)N1[C@H](C(=O)N[C@@H](Cc2ccc(I)cc2)C(=O)N2CCC[C@H]2C(=O)N[C@H](Cc2ccc(-c3ccccc3)cc2)C(=O)O)C[C@@H]2CCCC[C@@H]21)C(=O)O
- EC50 Human APJ Receptor [1]: 56.8 nM
- EC50 Rat APJ Receptor [2]: 63.9 nM

B8: SEQ ID NO: 311 (peptide)
peptide: Tridecanoyl-[γGlu][AEEA][AEEA][hArg][dR]Q[hArg]P[Nle][NMeL]SHKG[Oic][Phe(4-I)]P[dBip]-OH
SMILES: CCCCCCCCCCCCC(=O)N[C@@H](CCC(=O)NCCOCCOCC(=O)NCCOCCOCC(=O)N[C@@H](CCCCNC(=N)N)C(=O)N[C@H](CCCNC(=N)N)C(=O)N[C@@H](CCC(N)=O)C(=O)N[C@@H](CCCCNC(=N)N)C(=O)N1CCC[C@H]1C(=O)N[C@@H](CCCC)C(=O)N(C)[C@@H](CC(C)C)C(=O)N[C@@H](CO)C(=O)N[C@@H](Cc1c[nH]cn1)C(=O)N[C@@H](CCCCN)C(=O)NCC(=O)N1[C@H](C(=O)N[C@@H](Cc2ccc(I)cc2)C(=O)N2CCC[C@H]2C(=O)N[C@H](Cc2ccc(-c3ccccc3)cc2)C(=O)O)C[C@@H]2CCCC[C@@H]21)C(=O)O
- EC50 Human APJ Receptor [1]: 34.7 nM
- EC50 Rat APJ Receptor [2]: 37.4 nM

B9: SEQ ID NO: 310 (peptide)
peptide: Tridecanoyl-[γGlu][AEEA][AEEA][hArg]Q[hArg]P[NMeR][Cha]SHKG[Oic][Nle]P[Phe(4-Cl)]-OH
SMILES: CCCCCCCCCCCCC(=O)N[C@@H](CCC(=O)NCCOCCOCC(=O)NCCOCCOCC(=O)N[C@@H](CCCCNC(=N)N)C(=O)N[C@@H](CCC(N)=O)C(=O)N[C@@H](CCCCNC(=N)N)C(=O)N1CCC[C@H]1C(=O)N(C)[C@@H](CCCNC(=N)N)C(=O)N[C@@H](CC1CCCCC1)C(=O)N[C@@H](CO)C(=O)N[C@@H](Cc1c[nH]cn1)C(=O)N[C@@H](CCCCN)C(=O)NCC(=O)N1[C@H](C(=O)N[C@@H](CCCC)C(=O)N2CCC[C@H]2C(=O)N[C@@H](Cc2ccc(Cl)cc2)C(=O)O)C[C@@H]2CCCC[C@@H]21)C(=O)O
- EC50 Human APJ Receptor [1]: 0.226 nM
- EC50 Rat APJ Receptor [2]: 0.363 nM

B10: SEQ ID NO: 319 (peptide)
peptide: Tridecanoyl-[γGlu][AEEA][AEEA][hArg][dR]Q[hArg]PK[NMeL]AH[Nle]G[Oic][Phe(4-I)]P[dBip]-OH
SMILES: CCCCCCCCCCCCC(=O)N[C@@H](CCC(=O)NCCOCCOCC(=O)NCCOCCOCC(=O)N[C@@H](CCCCNC(=N)N)C(=O)N[C@H](CCCNC(=N)N)C(=O)N[C@@H](CCC(N)=O)C(=O)N[C@@H](CCCCNC(=N)N)C(=O)N1CCC[C@H]1C(=O)N[C@@H](CCCCN)C(=O)N(C)[C@@H](CC(C)C)C(=O)N[C@@H](C)C(=O)N[C@@H](Cc1c[nH]cn1)C(=O)N[C@@H](CCCC)C(=O)NCC(=O)N1[C@H](C(=O)N[C@@H](Cc2ccc(I)cc2)C(=O)N2CCC[C@H]2C(=O)N[C@H](Cc2ccc(-c3ccccc3)cc2)C(=O)O)C[C@@H]2CCCC[C@@H]21)C(=O)O
- EC50 Human APJ Receptor [1]: 73.2 nM
- EC50 Rat APJ Receptor [2]: 63.1 nM
